Experimental data from article PMC9084892, “Von Willebrand factor A1 domain stability and affinity for GPIbα are differentially regulated by its O-glycosylated N- and C-linker” (eLife, 2022).

How the values were obtained:
GPIbα (Homo sapiens) = GPIbα (Homo sapiens) (UniProt P07359); conditions: cited from earlier work
[1] = target: T1, VWF A1 domain construct A1 short (residues 1264-1469) (human, UniProt P04275 1264-1469); assay: BLI; biotinylated GPIbα on streptavidin sensors, A1 constructs as analyte; 20 mM HEPES pH 7.5, 0.02% Tween-20, 150 mM NaCl; global fit to a single kon and koff; Octet RED384; conditions: both partners purified
T1 construct: von Willebrand factor, human, A1 domain without the N- and C-linkers, residues 1264-1469, pre-pro-VWF numbering; Both the mammalian and the bacterial methods allow a 1264-1469 construct; If it was made in E. coli, it carried an N-terminal thioredoxin that was cut off with TEV protease; Long-range disulfide Cys1272-Cys1458 is present; source: purified (Ni-NTA, Superdex 200), gel filtered again on …

[2] = target: T2, VWF A1 domain construct A1+OGly+N+C (residues 1238-1489, O-glycosylated) (human, UniProt P04275 1238-1489, O-glycosylated N- and C-linkers); assay: as above; conditions: both partners purified
T2 construct: von Willebrand factor, human, A1 domain with the N- and C-linkers, residues 1238-1489, pre-pro-VWF numbering; It extends three residues beyond the bacterial A1+N+C so as to include the O-glycosylated residues Ser-1486 and Thr-1487; also called A1NC

[3] = target: T1, VWF A1 domain construct A1 short …; assay: ITC; GPIbα (250 uM; 550 uM with A1+OGly+N+C) titrated into A1 (22 uM; 50 uM with A1+OGly+N+C); 150 mM NaCl, 20 mM Tris-HCl pH 7.5, 22°C; MicroCal iTC200; conditions: both partners purified

Molecule: von Willebrand factor A1 (tethered, high-affinity state) (from UniProt P04275)
- Kd (GPIbα (Homo sapiens)): 80 nM

B1: Wild-type GPIbα, residues 1-290 of the mature protein, with biotinylated Avi-tag and His6 tag (domain or fragment)
chain: HPICEVSKVASHLEVNCDKRNLTALPPDLPKDTTILHLSENLLYTFSLATLMPYTRLTQLNLDRCELTKLQVDGTLPVLGTLDLSHNQLQSLPLLGQTLPALTVLDVSFNRLTSLPLGALRGLGELQELYLKGNELKTLPPGLLTPTPKLEKLSLANNNLTELPAGLLNGLENLDTLLLQENSLYTIPKGFFGSHLLPFAFLHGNPWLCNCEILYFRRWLQDNAENVYVWKQGVDVKAMTSNVASVQCDNSDKFPVYKYPGKGCPTLGDEGDTDLYDYYPEEDTEGDKVR
modifications: biotin on the Avi-tag
- Kd [1]: 180 nM
- Kd [2]: 9200 nM

B2: Wild-type GPIbα, residues 1-290 of the mature protein, with His6 tag (no Avi-tag) (domain or fragment)
chain: B1 chain
modifications: Mature 1-290 = precursor 17-306 (signal peptide 1-16). The His6 tag is left out; no Avi-tag or biotin. Expressed in HEK293, so glycosylated and disulfide-bonded.
- fold higher affinity of A1 short than of A1+OGly+N+C [3]: 39 fold
